US20150203579A1 (Regeneron, published 2015)

T1: monkey PD-1 with mFc (monkey)
T1 construct: also called monkey PD-1-mFc; monkey PD-1 dimer
T1 chain: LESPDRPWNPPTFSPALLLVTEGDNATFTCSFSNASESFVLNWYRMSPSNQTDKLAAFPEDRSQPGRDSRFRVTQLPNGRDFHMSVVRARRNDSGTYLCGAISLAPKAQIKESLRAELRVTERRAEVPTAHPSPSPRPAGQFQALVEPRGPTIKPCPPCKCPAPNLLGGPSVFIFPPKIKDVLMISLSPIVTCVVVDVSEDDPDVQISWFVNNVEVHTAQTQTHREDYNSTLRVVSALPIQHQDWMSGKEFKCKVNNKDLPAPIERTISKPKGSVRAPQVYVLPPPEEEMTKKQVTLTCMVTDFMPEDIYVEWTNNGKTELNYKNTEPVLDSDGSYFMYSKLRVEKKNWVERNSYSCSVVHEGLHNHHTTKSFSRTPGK

B1: H4xH9128P2 (antibody, V domains shown)
VH: QVQLQESGPGLVKPSETLSLTCTVSGGSISSYHWNWIRQSPGKGLEWIGYIYYIGSTDYNPSLESRVTISVDTSKNQFSLKLSSVTAADTAVYYCARVPVGATGASDVWGQGTMVTVSS
VL: not shown
notes: human IgG4 Fc with 2 or more amino acid changes (US20100331527)
B2: H4xH9037P (antibody, V domains shown)
VH: EVQLVESGGGLVQPGGSLRLSCAASGFTFDDYAMHWVRQAPGKGLEWVSGIGWSSGSIGYADSVKGRFTISRDNAKNSLYLQMDSLRPEDSALYYCAKAYTFMITLYFDYWGQGTLVTVSS
VL: not shown
notes: human IgG4 Fc with 2 or more amino acid changes (US20100331527); also called H4xH9037P2
B3: H4H9057P2 (antibody, V domains shown)
VH: EVQLVESGGGLVQSGRSLRLSCAASGFTFDDYAMHWVRQPPGKGLEWVSGINWNRGRTGYADSVKGRFTISRDNAKNSLYLQMNDLRVEDTALYYCAKAEQWLDEGYFDYWGQGTLVTVSS
VL: not shown
notes: fully human; H4H prefix (human IgG4 Fc)
B4: H4xH9045P (antibody, V domains shown)
VH: EVQLVESGGGLVQPGRSLRLSCAASGFTFDDYDMHWVRQAPGKGLEWVSGSGWNRGSLGYADSVKGRFTISRDNAKKSLYLQMNSVRVEDTALYYCAKGFVVVSAAYFDYWGQGTLVTVSS
VL: not shown
notes: human IgG4 Fc with 2 or more amino acid changes (US20100331527); also called H4xH9045P2
B5: H1M7799N (antibody, V domains shown)
VH: EVQLVESGGGLVQPGGSLRLSCAASGFTVSNNYMSWVRQAPGKGLEWVSVIYSGGFTYYTDSVKGRFTISRHNSKNTLYLQMNSLRAEDTAVYYCARYYYDTSDYWTFFDYWGQGTLVTVSS
VL: EIVMTQSPATLSVSPGERATLSCRASQSVSSNLAWYQQKPGQAPRLLIYGASTRATGIPARFSGSGSGTEFTLTISSLQSGDFAVYYCQQYNNWPLTFGGGTKVEIN
notes: human variable regions, mouse IgG1 Fc
B6: H1M7800N (antibody, V domains shown)
VH: B5 VH
VL: B5 VL
notes: as for B5
B7: H2aM7780N (antibody, V domains shown)
VH: QVQLVESGGGVVQSGRSLRLSCAASGFTFSSYGMHWVRQAPGKGLEWVAVIWYDGSNIYYSDSVKGRFTISRANSKNTLYLQMNSLRAEDTAVYYCARPGHWNYFFEYWGQGTLVTVSS
VL: DIQMTQSPSSLSASVGDRVTITCRASQSINNYLNWYQQKPGKAPKLLIYTASSLQSGVPSRFSGSGSGTDFTLTISSLQPEDFATYYCQQSYSTPPLTFGQGTQLEIK
notes: human variable regions, mouse IgG2a Fc; also called H2M7780N

biological target: T2, recombinant human PD-1 expressed with a C-terminal human IgG1 Fc tag (human); experiment: SPR Biacore 3000: 100 nM hPD-1.hFc + 500 nM mAb to captured hPD-L1.mFc;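 further: inhibition study with anti-PD-1 mAbs, SPR responses tracked in real time and read at the close of each step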
T2 construct: also called hPD-1-hFc; hPD1-hFc

| Binder | % Blocking | binding of the mixture (RU) |
| --- | --- | --- |
| B1 | 105% | -5 RU |
| B2 | 104% | -4 RU |
| B3 | 43% | 57 RU |
| B4 | 105% | -5 RU |

Biological target: T1, monkey PD-1 with mFc
Experiment: SPR, captured mAb, 37 C;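 further: Real-time Biacore surface plasmon resonance biosensor readout of PD-1 reagent binding to purified anti-PD-1 monoclonal antibodies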

| Binder | 100 nM Monkey PD-1-mFc Bound (RU) | Kd | koff | kon | t1/2 |
| --- | --- | --- | --- | --- | --- |
| B1 | 60 RU | 4.36 nM | 0.000816 s⁻¹ | 187000 M⁻¹ s⁻¹ | 14 min |
| B2 | 24 RU | 3.21 nM | 0.000897 s⁻¹ | 280000 M⁻¹ s⁻¹ | 13 min |
| B3 | 28 RU | 29.6 nM | 0.00477 s⁻¹ | 161000 M⁻¹ s⁻¹ | 2.4 min |
| B4 | 65 RU | 5.66 nM | 0.00136 s⁻¹ | 241000 M⁻¹ s⁻¹ | 8 min |

biological target: T3, recombinant human PD-1 dimer expressed with a C-terminal mouse IgG2a Fc tag (human); experiment: competition ELISA: 1.5 nM hPD-1-mFc to coated hPD-L1-hFc
T3 construct: also called hPD-1-mFc

| Binder | % blocking at 200 nM antibody | IC50 |
| --- | --- | --- |
| B1 | 98% |  |
| B2 | 100% | 0.89 nM |
| B5 | 82% |  |
| B6 | 83% |  |
| B3 | 98% |  |
| B4 | 98% |  |
| B7 | 94% |  |

biological target: T4, full length human PD-1 on HEK293/hPD-1 cells (human, UniProt Q15116 25-288); experiment: FACS dose response, HEK293/hPD-1 cells

| Binder | EC50 | Max Geom. Mean MFI @ 100 nM |
| --- | --- | --- |
| B2 | 0.674 nM | 36400 MFI |
| B5 | 0.0332 nM | 24400 MFI |
| B6 | 0.048 nM | 20800 MFI |
| B3 | 0.236 nM | 20000 MFI |
| B4 | 0.0917 nM | 24700 MFI |
| B7 | 1.69 nM | 18400 MFI |

biological target: T3, recombinant human PD-1 dimer expressed …; experiment: competition ELISA: 1.5 nM hPD-1-mFc to coated hPD-L1-hFc; * below theoretical bottom 7.5E-10 M

| Binder | IC50 |
| --- | --- |
| B1 | 0.64 nM |
| B5 | 0.22 nM |
| B6 | 0.6 nM |
| B3 | 0.19 nM |
| B4 | 0.28 nM |
| B7 | 0.69 nM |

Biological target: T1, monkey PD-1 with mFc
Experiment: SPR, captured mAb, 25 C;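 further: purified anti-PD-1 antibodies tested on Biacore 4000 or T200 instruments, rate constants obtained via 1:1 binding model fit, with KD as kd/ka and half-life as ln2/(60·kd)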

| Binder | 100 nM Monkey PD-1-mFc Bound (RU) | Kd | koff | kon | t1/2 |
| --- | --- | --- | --- | --- | --- |
| B1 | 64 RU | 1.57 nM | 0.000124 s⁻¹ | 78700 M⁻¹ s⁻¹ | 94 min |
| B2 | 58 RU | 0.912 nM | 0.000137 s⁻¹ | 150000 M⁻¹ s⁻¹ | 84 min |
| B3 | 75 RU | 2.98 nM | 0.000303 s⁻¹ | 102000 M⁻¹ s⁻¹ | 38 min |
| B4 | 78 RU | 1.72 nM | 0.000168 s⁻¹ | 97800 M⁻¹ s⁻¹ | 69 min |

biological target: T3, recombinant human PD-1 dimer expressed …; experiment: BLI Octet: 100 nM hPD-1-mFc + 500 nM mAb to captured hPD-L1-hFc

| Binder | % Blocking | binding of the mixture (nm) |
| --- | --- | --- |
| B5 | 100% | 0 nm |
| B6 | 100% | 0 nm |
| B7 | 114% | -0.01 nm |

biological target: T4, full length human PD-1 on HEK293/hPD-1 …; experiment: FACS, 100 nM mAb

| Binder | ratio of MFI HEK293/hPD-1 to HEK293 parental cells |
| --- | --- |
| B2 | 81.4 |
| B5 | 26.9 |
| B6 | 24.7 |
| B3 | 46.1 |
| B4 | 93.7 |
| B7 | 73.8 |

biological target: T4, full length human PD-1 on HEK293/hPD-1 …; experiment: FACS, 100 nM mAb, HEK293/hPD-1 cells;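 further: antibodies incubated with cells for 15-30 min on ice, bound antibody detected through a secondary F(ab′)2 by flow cytometry, with parental HEK293 cells tested in parallel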

| Binder | MFI |
| --- | --- |
| B1 | 9080 MFI |
| B2 | 8790 MFI |
| B5 | 6860 MFI |
| B6 | 6810 MFI |
| B3 | 6500 MFI |
| B4 | 8880 MFI |
| B7 | 23700 MFI |

biological target: T5, dimeric biotinylated human PD-1 protein with a C-terminal human Fc tag (human, biotinylated (sites not given)); experiment: competition ELISA: 200 pM biot-hPD-1-hFc to coated hPD-L1-mFc; * below theoretical bottom 1.0E-10 M
T5 construct: also called biot-hPD-1-hFc

| Binder | IC50 |
| --- | --- |
| B2 | 0.078 nM |
| B5 | 0.059 nM |
| B6 | 0.065 nM |
| B7 | 0.091 nM |

biological target: PD-1 chimera: extracellular domain of human PD-1 with trans-membrane and cytoplasmic domains of human CD300a, … (human, UniProt Q9UGN4 181-299, limits assumed); experiment: cell-based or functional assay

| Binder | Concentration (M) of Antibody at 150% activation | Emax mean [%] @ 100 nM |
| --- | --- | --- |
| B2 | 2.82e-09 M | 195% |
| B5 | 2.97e-08 M | 183% |
| B6 | 1.65e-08 M | 182% |
| B3 | 2.68e-08 M | 212% |
| B4 | 2.23e-08 M | 176% |
| B7 | 6.52e-09 M | 228% |

biological target: T5, dimeric biotinylated human PD-1 protein …; experiment: competition ELISA: 200 pM biot-hPD-1-hFc to coated hPD-L1-mFc

| Binder | % blocking at 50 nM antibody | IC50 |
| --- | --- | --- |
| B1 | 97% | 0.19 nM |
| B2 | 95% |  |
| B5 | 100% |  |
| B6 | 99% |  |
| B4 | 95% | 0.13 nM |
| B7 | 100% |  |

biological target: T6, recombinant human PD-L1 expressed with a C-terminal mouse IgG2a Fc tag (human); experiment: SPR Biacore 3000: 500 nM mAb alone (no hPD-1.hFc) over captured hPD-L1.mFc surface, control
T6 construct: also called hPD-L1-mFc; hPD-L1.mFc

| Binder | 500 nM of anti-PD-1 monoclonal antibody (RU) |
| --- | --- |
| B1 | -5 RU |
| B2 | -4 RU |
| B4 | -4 RU |
